Source: US20210238260A1 (published 2021)

T1: Factor VIIIa (recombinant FVIII, Kogenate FS, activated with alpha-thrombin) (UniProt P00451 20-2351)
T1 construct: also called FVIIIa; cofactor
T1 sequence (looked up): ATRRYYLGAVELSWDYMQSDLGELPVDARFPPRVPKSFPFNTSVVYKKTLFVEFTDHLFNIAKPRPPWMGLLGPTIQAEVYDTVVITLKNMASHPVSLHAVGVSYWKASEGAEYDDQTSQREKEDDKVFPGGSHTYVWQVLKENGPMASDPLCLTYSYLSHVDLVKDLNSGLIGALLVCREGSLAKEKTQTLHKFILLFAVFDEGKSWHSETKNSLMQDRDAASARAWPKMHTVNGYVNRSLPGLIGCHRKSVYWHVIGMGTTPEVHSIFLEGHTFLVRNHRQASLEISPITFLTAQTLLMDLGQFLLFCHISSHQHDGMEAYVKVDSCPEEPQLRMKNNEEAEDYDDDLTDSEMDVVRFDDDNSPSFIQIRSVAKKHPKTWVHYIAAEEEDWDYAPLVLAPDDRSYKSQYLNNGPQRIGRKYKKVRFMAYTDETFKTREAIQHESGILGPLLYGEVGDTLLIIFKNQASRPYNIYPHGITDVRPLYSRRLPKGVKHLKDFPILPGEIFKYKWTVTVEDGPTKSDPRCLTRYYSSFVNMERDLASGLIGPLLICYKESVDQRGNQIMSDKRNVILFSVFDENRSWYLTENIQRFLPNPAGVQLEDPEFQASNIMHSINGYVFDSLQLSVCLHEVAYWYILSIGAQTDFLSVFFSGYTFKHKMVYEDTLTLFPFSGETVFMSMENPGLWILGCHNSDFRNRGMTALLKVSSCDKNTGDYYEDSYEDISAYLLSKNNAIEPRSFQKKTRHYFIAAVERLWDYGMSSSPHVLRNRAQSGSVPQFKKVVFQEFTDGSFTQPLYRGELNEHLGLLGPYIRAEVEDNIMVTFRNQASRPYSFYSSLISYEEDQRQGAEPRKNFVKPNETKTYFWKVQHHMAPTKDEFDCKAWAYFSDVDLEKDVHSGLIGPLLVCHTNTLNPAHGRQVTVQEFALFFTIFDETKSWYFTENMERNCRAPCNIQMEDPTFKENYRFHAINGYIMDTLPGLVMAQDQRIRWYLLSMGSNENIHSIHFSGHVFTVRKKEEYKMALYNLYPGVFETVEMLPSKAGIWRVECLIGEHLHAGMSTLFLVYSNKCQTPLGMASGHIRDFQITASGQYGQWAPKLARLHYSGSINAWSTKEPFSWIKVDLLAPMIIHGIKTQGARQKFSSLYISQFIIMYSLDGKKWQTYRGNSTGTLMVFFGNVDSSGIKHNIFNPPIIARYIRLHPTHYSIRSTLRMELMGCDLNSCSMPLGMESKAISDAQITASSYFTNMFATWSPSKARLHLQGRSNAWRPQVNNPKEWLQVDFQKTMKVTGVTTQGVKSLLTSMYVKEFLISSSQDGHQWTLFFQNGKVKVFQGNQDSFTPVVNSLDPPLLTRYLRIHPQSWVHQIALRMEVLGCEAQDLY

B1: FIXa-D104N/K106S/R318Y/R338E/E410N (enzyme)
chain 1: YNSGKLEEFVQGNLERECMEEKCSFEEAREVFENTERTTEFWKQYVDGDQCESNPCLNGGSCKDDINSYECWCPFGFEGKNCELDVTCNIKNGRCEQFCKNSANNSVVCSCTEGYRLAENQKSCEPAVPFPCGRVSVSQTSKLTR
chain 2: VVGGEDAKPGQFPWQVVLNGKVDAFCGGSIVNEKWIVTAAHCVETGVKITVVAGEHNIEETEHTEQKRNVIRIIPHHNYNAAINKYNHDIALLELDEPLVLNSYVTPICIADKEYTNIFLKFGSGYVSGWGRVFHKGYSALVLQYLRVPLVDRATCLESTKFTIYNNMFCAGFHEGGRDSCQGDSGGPHVTEVEGTSFLTGIISWGEECAMKGKYGIYTKVSRYVNWIKNKTKLT
B2: FIXa-K247N/N249S/N260S (enzyme)
chain 1: YNSGKLEEFVQGNLERECMEEKCSFEEAREVFENTERTTEFWKQYVDGDQCESNPCLNGGSCKDDINSYECWCPFGFEGKNCELDVTCNIKNGRCEQFCKNSADNKVVCSCTEGYRLAENQKSCEPAVPFPCGRVSVSQTSKLTR
chain 2: VVGGEDAKPGQFPWQVVLNGKVDAFCGGSIVNEKWIVTAAHCVETGVKITVVAGEHNIEETEHTEQNRSVIRIIPHHNYSAAINKYNHDIALLELDEPLVLNSYVTPICIADKEYTNIFLKFGSGYVSGWGRVFHKGRSALVLQYLRVPLVDRATCLRSTKFTIYNNMFCAGFHEGGRDSCQGDSGGPHVTEVEGTSFLTGIISWGEECAMKGKYGIYTKVSRYVNWIKEKTKLT
notes: also called K82N/N84S/N95S (chymotrypsin numbering)
B3: FIXa-R318Y/R338E/E410N (enzyme)
chain 1: YNSGKLEEFVQGNLERECMEEKCSFEEAREVFENTERTTEFWKQYVDGDQCESNPCLNGGSCKDDINSYECWCPFGFEGKNCELDVTCNIKNGRCEQFCKNSADNKVVCSCTEGYRLAENQKSCEPAVPFPCGRVSVSQTSKLTR
chain 2: VVGGEDAKPGQFPWQVVLNGKVDAFCGGSIVNEKWIVTAAHCVETGVKITVVAGEHNIEETEHTEQKRNVIRIIPHHNYNAAINKYNHDIALLELDEPLVLNSYVTPICIADKEYTNIFLKFGSGYVSGWGRVFHKGYSALVLQYLRVPLVDRATCLESTKFTIYNNMFCAGFHEGGRDSCQGDSGGPHVTEVEGTSFLTGIISWGEECAMKGKYGIYTKVSRYVNWIKNKTKLT
notes: also called R150Y/R170E/E240N
B4: FIXa-D104N/K106S/Y155F/R318Y/R338E/R403E/E410N (enzyme)
chain 1: YNSGKLEEFVQGNLERECMEEKCSFEEAREVFENTERTTEFWKQYVDGDQCESNPCLNGGSCKDDINSYECWCPFGFEGKNCELDVTCNIKNGRCEQFCKNSANNSVVCSCTEGYRLAENQKSCEPAVPFPCGRVSVSQTSKLTR
chain 2: VVGGEDAKPGQFPWQVVLNGKVDAFCGGSIVNEKWIVTAAHCVETGVKITVVAGEHNIEETEHTEQKRNVIRIIPHHNYNAAINKYNHDIALLELDEPLVLNSYVTPICIADKEYTNIFLKFGSGYVSGWGRVFHKGYSALVLQYLRVPLVDRATCLESTKFTIYNNMFCAGFHEGGRDSCQGDSGGPHVTEVEGTSFLTGIISWGEECAMKGKYGIYTKVSEYVNWIKNKTKLT
B5: FIXa-R338E/R403E/E410N (enzyme)
chain 1: YNSGKLEEFVQGNLERECMEEKCSFEEAREVFENTERTTEFWKQYVDGDQCESNPCLNGGSCKDDINSYECWCPFGFEGKNCELDVTCNIKNGRCEQFCKNSADNKVVCSCTEGYRLAENQKSCEPAVPFPCGRVSVSQTSKLTR
chain 2: VVGGEDAKPGQFPWQVVLNGKVDAFCGGSIVNEKWIVTAAHCVETGVKITVVAGEHNIEETEHTEQKRNVIRIIPHHNYNAAINKYNHDIALLELDEPLVLNSYVTPICIADKEYTNIFLKFGSGYVSGWGRVFHKGRSALVLQYLRVPLVDRATCLESTKFTIYNNMFCAGFHEGGRDSCQGDSGGPHVTEVEGTSFLTGIISWGEECAMKGKYGIYTKVSEYVNWIKNKTKLT
notes: also called R170E/R233E/E240N

How the values were obtained:
[1] = target: T1, Factor VIIIa (recombinant FVIII, …); experiment: same assay; ratio of KD-app of Catalyst Biosciences WT FIXa to KD-app of this FIXa
From the text: The activity of alpha-thrombin was then quenched by the addition of a highly specific thrombin inhibitor, hirudin, prior to initiating the assay.

[2] = target: T1, Factor VIIIa (recombinant FVIII, …); experiment: apparent functional KD (KD-app): FXa generation by FIXa with FVIIIa titrated, PC/PS vesicles, saturating FX, fluorogenic Spectrafluor FXa
Method: Reactions were monitored in a SpectraMax fluorescence plate reader for 30 min at 37° C. A standard curve of free AMC served as the conversion factor for RFU to μM in the subsequent data analysis calculations using a dose range that covered 0 μM to 100 μM AMC.

[3] = target: T2, plasma purified human antithrombin III (AT-III), in complex with unfractionated heparin (UFH) (human, UniProt P01008 33-464); experiment: K0.5: AT-III concentration (with excess UFH) for 50% inhibition of FIXa activity on Mesyl-D-CHG-Gly-Arg-AMC, 10 s incubation
T2 construct: also called AT-III/UFH

Binder	KD-WT/KD-mut [1]	Kd [2]	IC50 [3]
B1	7.7	12.4 nM	–
B2	–	–	157 nM
B3	12.4	7.7 nM	–
B4	1.6	61.6 nM	–
B5	1.7	54.9 nM	–
